Measured values from US5798442A, “Peptidyl derivatives as inhibitors of pro-apoptotic cysteine proteinases” (Merck Frosst Canada, Inc., priority 1995, dated 1998).

Substrate: CC(=O)N[C@@H](CC(=O)O)C(=O)N[C@@H](CCC(=O)O)C(=O)N[C@H](C(=O)N[C@@H](CC(=O)O)C(=O)Nc1ccc2c(C)cc(=O)oc2c1)C(C)C
Assay: continuous fluorometric assay with Ac-DEVD-AMC and purified apopain
Assay type: biochemical, human
Details: other: purified apopain, 25° C., pH 7.5

B1: apopain/CPP32 (Homo sapiens) (protein)
chain 1: SGISLDNSYKMDYPEMGLCIIINNKNFHKSTGMTSRSGTDVDAANLRETFRNLKYEVRNKNDLTREEIVELMRDVSKEDHSKRSSFVCVLLSHGEEGIIFGTNGPVDLKKITNFFRGDRCRSLTGKPKLFIIQACRGTELDCGIETD
chain 2: SGVDDDMACHKIPVEADFLYAYSTAPGYYSWRNSKDGSWFIQSLCAMLKQYADKLEFMHILTRVNRKVATEFESFSFDATFHAKKQIPCIVSMLTKELYFYH
notes: cleavage between Asp^28 -Ser^29 and Asp^175 -Ser^176; cleavage sites which yield the p17 and p12 subunits from the CPP32 proenzyme; endogenous in cells; host or cells: THP-1 cells (ATCC TIB 202)
B1 showed a Km of 9.7 ± 1.0 µM.
